Source: patent publication US10442866 (BEIJING MABWORKS BIOTECH, dated 2019)
Numbering of substitutions follows the chain as printed.

T1: human DR6 (TNFRSF21, Sino Biological, Cat#: 10175-H08H) (human, UniProt O75509 42-349)
T1 construct: bought recombinant protein
T1 sequence (looked up): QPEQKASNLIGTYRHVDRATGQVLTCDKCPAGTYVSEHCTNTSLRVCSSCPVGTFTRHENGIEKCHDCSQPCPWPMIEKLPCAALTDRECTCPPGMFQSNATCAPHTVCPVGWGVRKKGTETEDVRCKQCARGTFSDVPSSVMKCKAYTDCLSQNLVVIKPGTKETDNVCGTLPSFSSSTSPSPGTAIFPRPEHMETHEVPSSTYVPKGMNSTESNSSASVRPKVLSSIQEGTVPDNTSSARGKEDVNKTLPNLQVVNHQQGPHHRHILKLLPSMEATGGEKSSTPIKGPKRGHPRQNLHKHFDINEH

T2: human NGFR (TNFRSF16, Sino Biological, Cat#: 13184-H08H) (human, UniProt P08138 29-250)
T2 construct: bought recombinant protein
T2 sequence (looked up): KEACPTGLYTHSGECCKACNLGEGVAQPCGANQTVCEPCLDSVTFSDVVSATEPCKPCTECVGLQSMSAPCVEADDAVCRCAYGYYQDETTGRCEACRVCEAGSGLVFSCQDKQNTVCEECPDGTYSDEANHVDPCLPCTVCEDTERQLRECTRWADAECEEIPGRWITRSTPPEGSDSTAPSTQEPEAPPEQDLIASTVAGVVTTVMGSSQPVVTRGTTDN

T3: human HVEM-mFc (TNFRSF14, ACRO, Cat#: HVM-H5255) (human, UniProt Q92956 39-202)
T3 construct: bought protein; also called HVEM(TNFRSF14); not shown: mouse Fc (mFc)
T3 sequence (looked up): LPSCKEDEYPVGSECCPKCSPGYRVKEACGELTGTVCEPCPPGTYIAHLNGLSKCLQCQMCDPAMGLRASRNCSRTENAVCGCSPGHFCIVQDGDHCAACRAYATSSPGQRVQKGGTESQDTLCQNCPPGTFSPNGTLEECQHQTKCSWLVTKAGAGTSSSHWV

T4: recombinant human OX40-his (Sino Biological, Cat#:10481-H03H) (human, UniProt P43489 29-214)
T4 construct: bought protein; also called hOX40-his; not shown: His tag
T4 sequence: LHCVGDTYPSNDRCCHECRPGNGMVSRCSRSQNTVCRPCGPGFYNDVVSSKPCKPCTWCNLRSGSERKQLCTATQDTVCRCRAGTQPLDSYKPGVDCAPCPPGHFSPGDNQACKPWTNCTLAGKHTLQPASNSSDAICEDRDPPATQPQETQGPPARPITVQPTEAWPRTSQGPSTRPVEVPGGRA

T5: rhesus OX40 expressed on HEK293A cells (rhesus, UniProt P43489 29-277 (human entry))
T5 construct: also called HEK293A/rhOX40; HEK293A/rhesusOX40 cells
T5 chain: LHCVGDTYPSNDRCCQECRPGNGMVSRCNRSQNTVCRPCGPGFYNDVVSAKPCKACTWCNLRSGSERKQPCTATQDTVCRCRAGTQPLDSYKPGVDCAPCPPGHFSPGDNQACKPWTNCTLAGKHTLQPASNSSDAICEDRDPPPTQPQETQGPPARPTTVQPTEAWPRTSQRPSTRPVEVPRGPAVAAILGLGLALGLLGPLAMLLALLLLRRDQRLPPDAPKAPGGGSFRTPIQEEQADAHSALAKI

B1: 68C8-VH2VL3 (antibody, human IgG1, kappa, V domains shown)
VH: QVQLVQSGAEVKKPGASVKVSCKVSGDTFTSYWITWVRQRPGKGLEWMGDIHPGSGSTNNNEKFKNRVTMTVDTSTDTAYMELSSLRSEDTAVYYCATLRPYYFVYWGQGTLVTVSS
VL: DIQMTQSPSSLSASVGDRVTITCRASQDISNYLNWYQQKPGKTVKLLIYYTSRLLSGVPSRFSGSGSGTDYTLTISSLQPEDFATYFCQQGNTLPLTFGQGTRLEIKR
notes: humanized; also called 68C8-H2L3; 68C8H2L3
B2: 71H8-VH2VL3 (antibody, human IgG1, kappa, V domains shown)
VH: B1 VH with D27Y, H52Y, N60Q, N66S
VL: B1 VL
notes: humanized; also called 71H8-H2L3; 71H8H2L3

Assays:
[1] = target: T6, human CD40-his (TNFRSF5, Sino Biological, Cat#:10774-H08H) (human, UniProt P25942 21-193); assay: ELISA on coated recombinant human TNFRSF protein, OD450
T6 construct: bought protein; also called recombinant human CD40 (TNFRSF5); not shown: His tag
Protocol: (§1) ELISA assays were performed to determine the binding specificity of anti-OX40 antibodies to human OX40, in comparison to other human TNFRSF members with homologous amino acid sequences, following the protocol described in Example 2.

[2] = target: T1, human DR6 (TNFRSF21, Sino Biological, …); assay: as above
Protocol: as §1

[3] = target: T2, human NGFR (TNFRSF16, Sino Biological, …); assay: as above
Protocol: as §1

[4] = target: T3, human HVEM-mFc (TNFRSF14, ACRO, Cat#: …); assay: as above
Protocol: as §1

[5] = target: T7, human 4-1BB (TNFRSF9, ACRO, Cat#:41B-H522a) (human, UniProt Q07011 24-186); assay: as above
T7 construct: bought recombinant protein
Protocol: as §1

[6] = target: T4, recombinant human OX40-his (Sino …); assay: SPR Biacore 8K, OX40-His on chip, antibody injected
Protocol: SPR assays were used to determine the binding affinity of the chimetic or humanized anti-OX40 antibodies to human OX40 with the BIAcore™ 8K instrument (GE Life Sciences). Briefly, 100-200 response units (RU) of human OX40-His protein (Sino Biological, CN, Cat#:10481-H03H, Lot no.: MA08MA3003) were coupled to CM5 biosensor chips (Cat#: BR-1005-30, GE Life Sciences), followed by blocking of un-reacted groups with 1M ethanolamine. Serially diluted antibodies at concentrations ranging from 0.3 µM to 10 µM were injected into the SPR running buffer (HBS-EP buffer, pH7.4, GE Life Sciences; US; Cat#:BR-1006-69) at 30 µL/minute. The binding capacitity was calculated with the RUs of blank controls subtracted. The association rate (k_a) and dissociation rate (k_d) were calculated using the one-to-one Langmuir binding model (BIA Evaluation Software, GE Life Sciences). The equilibrium dissociation constant K_D was calculated as the k_d/k_a ratio.

[7] = target: T5, rhesus OX40 expressed on HEK293A cells; assay: FACS on HEK293A/rhesus OX40 cells, MFI (panel without title; monkey OX40 by the legend)
Protocol: Briefly, 10^5 HEK293A cells were seeded into each well of the 96-well plates and serially diluted anti-OX40 antibodies were added to the plates. After incubated at 4° C. for 1 hour, plates were washed 3 times with PBST. Then, an APC coupled Goat Anti-Mouse IgG (BioLegen, US, Cat#: 405308) diluted 500× was added to the plates. After incubation at 4° C. for 1 hour, the plates were washed with PBS for 3 times and then cell fluorescence was monitored using a FACS machine (BD).
Example 15 Humanized Anti-OX40 Antibodies Bound to Human or Rhesus OX40 Expressed on HEK293A Cells The humanized anti-OX40 antibodies were also tested for their ability of binding to HEK293A/huOX40 cells or HEK293A/rhOX40 cells, following the FACS analysis protocol as described in Example 5.

T6 sequence (P25942 21-193 limits assumed): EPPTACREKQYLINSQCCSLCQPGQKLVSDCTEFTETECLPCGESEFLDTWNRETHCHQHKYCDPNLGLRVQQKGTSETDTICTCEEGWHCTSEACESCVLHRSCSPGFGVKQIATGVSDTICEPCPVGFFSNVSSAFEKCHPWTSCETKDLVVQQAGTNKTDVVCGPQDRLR

| Binder | binding result [1] | binding result [2] | binding result [3] | binding result [4] | binding result [5] | Kd [6] | koff [6] | kon [6] | binding result [7] |
| --- | --- | --- | --- | --- | --- | --- | --- | --- | --- |
| B1 | no binding (tested: about 10000 ng/mL (log about 4)) | no binding (tested: about 10000 ng/mL (log about 4)) | no binding (tested: about 10000 ng/mL (log about 4)) | no binding (tested: about 10000 ng/mL (log about 4)) | no binding (tested: about 10000 ng/mL (log about 4)) | 1.96 nM | 0.000927 s⁻¹ | 473000 M⁻¹ s⁻¹ | binds |
| B2 | no binding (tested: about 10000 ng/mL (log about 4)) | no binding (tested: about 10000 ng/mL (log about 4)) | no binding (tested: about 10000 ng/mL (log about 4)) | no binding (tested: about 10000 ng/mL (log about 4)) | no binding (tested: about 10000 ng/mL (log about 4)) | 4.57 nM | 0.00198 s⁻¹ | 434000 M⁻¹ s⁻¹ | binds |
